Reference: paper doi:10.1101/2025.11.16.688667

Target: Rabbit skeletal actin (actin filaments) (rabbit) (UniProt P68135)
Assay: high-speed atomic force microscopy

Question: How did the dwell time at 1 uM ABD-E235K turn out when “Recombinant human alpha-actinin-1 ABD-E235K (from UniProt P12814 1-892) (domain or fragment)” was run?
Answer: 0.39 s

Question: And the dwell time at 2 uM ABD-E235K?
Answer: 0.4 s

Question: And the dwell time at 3 uM ABD-E235K?
Answer: 0.51 s
